The assay addresses T1, Talin F2F3 (206-405, C336S) (UniProt Q9Y490 206-405, C336S).
T1 construct: Talin (head 1-433, rod 434-2541), F2 and F3 lobes of the FERM domain, residues 206-405; gene codon optimised and synthesised; the purification (beads before and after cleavage, elution as a 25 kDa protein) describes the cleaved protein; also called Talin206-405; Talin F2F3 head
Briefly: NMR titration; 1H-15N HSQC; 90 μM 15N-labelled FAT incubated with Talin at molar ratios of 1:0.5, 1:1 and 1:2; 25 °C. The conditions noted are these: both partners purified.

T1 sequence (Q9Y490 206-405 C336S): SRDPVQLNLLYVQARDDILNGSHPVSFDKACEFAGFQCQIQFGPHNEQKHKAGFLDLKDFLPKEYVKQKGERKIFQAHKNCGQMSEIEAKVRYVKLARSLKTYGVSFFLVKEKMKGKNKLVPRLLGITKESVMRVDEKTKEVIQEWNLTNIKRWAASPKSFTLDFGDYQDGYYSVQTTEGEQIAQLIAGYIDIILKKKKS

B1: FAT domain of human FAK (892-1052) (domain or fragment, UniProt Q05397 892-1052, looked up)
chain: SSPADSYNEGVKLQPQEISPPPTANLDRSNDKVYENVTGLVKAVIEMSSKIQPAPPEEYVPMVKEVGLALRTLLATVDETIPLLPASTHREIEMAQKLLNSDLGELINKMKLAQQYVMTSLQQEYKKQMLTAAHALAVDAKNLLDVIDQARLKMLGQTRPH
notes: focal adhesion kinase (FAK), human, residues 892-1052: FAT domain with N-terminal residues preceding the four-helix bundle (922-1049); Expressed as GST fusion from pGex-6P2 and released from the beads with 3C protease; 15N-labelled (M9 medium with 15N-NH4Cl) for the NMR experiments; also called FAT892-1052; FAK FAT; source: E. coli BL21, purified (Glutathione Sepharose 4B, 3C protease, Superdex …)
For the molecule B1, the dissociation constant (Kd) is > 100 µM.
